In paper PMC9861184:

Tested on: T1, SigW (ECF sigma factor, GST fusion) (Pseudomonas donghuensis HYS), ORF:b11b1795
T1 sequence: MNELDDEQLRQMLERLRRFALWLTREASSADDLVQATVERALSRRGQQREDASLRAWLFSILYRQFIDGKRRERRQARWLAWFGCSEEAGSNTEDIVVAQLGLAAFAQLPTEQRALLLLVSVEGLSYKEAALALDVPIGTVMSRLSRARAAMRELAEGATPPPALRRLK
Assay: EMSA
Conditions: EMSA: 0.3 uM DNA in 20 uL, 10 mM Tris-HCl pH 7.5, 150 mM NaCl, 2 mM DTT, 2 mM EDTA, 10% glycerol, 30 C 40 min; 6.8% native PAGE in 0.5x TBE on ice, EB stain

Sequence	binding
CCCTACCGTATTTGAACGGCTGGCCAGCCCTCTGTGTCCTTGCACGCCCTTGAGTTAGGGCCTGCATGCCCCATTTGCGGGCAGAGAACACTGCCGGTTCAAAGACATTCAGGGAAAAACCTCCAGGATCGGAGCCCCGTGGTCTGGCTGGCAGTCTTTCTCACAAATGCGATCAGGTAAATTCTGGAGTCATTCGTGAAACAAGCTCAACTTCCGCGCAAGATACCCACACAAGCCCGCTCGAGG (double strand) [orf12 promoter]	binds
CGAACTCATGGCCTGCCCCCGGGAACGGGCGCAGGGGCACGGTAAAACAGGTACAGGCGCATGGCTTCAGAACTCCGGGTAATTGAGGTACCCGGCAAGTCTATGGAGGCCGATTACTGACGAAAACTGACATATTCGCAGCTTTATGCTGCATGAGACGCAACTATACGATCAGGTATATATAAGCGCTCAAAAGCATC (double strand) [orf2-orf5 promoter]	binds more weakly
GCCCGCGTATTTCCTGAGCTCAACCTGAGCAATCACGCAGCGCCGCACTCGGTTATTTGAATGCGAGTAGCCATAGCACGGCAACTTGCCTAGGATAAGAAACAAATTGAAACGTTGTTAAAAGTGACAACTACCCGCTCAACGATGTTTCAACTTTCTTGCAATCTTCAGCCCCACAAATCAATAAAAGGACGTTCACGATGAGCAACAAGGGTTTTGACACCG (double strand) [orf9-orf6 promoter]	binds
TCAATGGCGATCAGTACCGAGCTGTACATGGTGACGGGACCCATTCTGAATACAAAGAGCAGGCATTCTTGAAAAAGCGTGCGGCCGGGTAAATGGTGCGCGGTGCAATGACTAGTTGCGCAGAATGCAAGGGCTGGAAAACCTGCAGAAACTGGTAAGATTGCAGCGGATTCACTGAAATACATGAATGGATGCTTACCATGCACTTTCCGGATA (double strand) [orf1 promoter]	binds
